Assay results taken from the supplement of paper PMC9112550, “Optimization of the antimicrobial peptide Bac7 by deep mutational scanning” (BMC Biology, 2022).

Tested on: Escherichia coli TOP10
Assay: shrunken log2 fold change of peptide-encoding DNA abundance (4.5 h post-induction vs induction); higher = less antimicrobial activity (less host growth inhibition)
Conditions: time post-induction: 4.5 h; library: site-saturation at positions 5, 18, 19, 20
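Also: peptides expressed intracellularly from a pBAD plasmid library in pooled LB shake-flask culture, induced with 0.3% L-arabinose, DNA abundance read by NGS, three biological replicates, DESeq2 with apeglm shrinkage.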

Sequence | shrunken log2 fold change
RRIRTRPPRLPRPRPRPRWAPRP | 0.541
RRIRWRPPRLPRPRPRPFKAPRP | 0.0343
RRIRVRPPRLPRPRPRPIQSPRP | -0.177
RRIRFRPPRLPRPRPRPWSWPRP | -0.169
RRIRGRPPRLPRPRPRPSCDPRP | 0.543
RRIRNRPPRLPRPRPRPMYPPRP | -0.271
RRIRIRPPRLPRPRPRPRYKPRP | -0.593
RRIRHRPPRLPRPRPRPISWPRP | -0.245
RRIRQRPPRLPRPRPRPPACPRP | 0.162
RRIRARPPRLPRPRPRPLMAPRP | 0.554
RRIRERPPRLPRPRPRPVARPRP | -0.168
RRIRARPPRLPRPRPRPNCHPRP | -0.0678
RRIRYRPPRLPRPRPRPNQCPRP | -0.352
RRIRARPPRLPRPRPRPPCQPRP | 0.438
RRIRCRPPRLPRPRPRPCCRPRP | -0.106
RRIRNRPPRLPRPRPRPGMVPRP | -0.23
RRIRARPPRLPRPRPRPWYEPRP | -0.0297
RRIRGRPPRLPRPRPRPQGTPRP | -0.0716
RRIRIRPPRLPRPRPRPPMIPRP | -0.112
RRIRFRPPRLPRPRPRPLFRPRP | -0.372
RRIRQRPPRLPRPRPRPQKAPRP | -0.109

Sequence | shrunken log2 fold change
RRIRARPPRLPRPRPRPYMRPRP | -0.0199
RRIRLRPPRLPRPRPRPQTVPRP | -0.211
RRIRCRPPRLPRPRPRPSSPPRP | -0.461
RRIRVRPPRLPRPRPRPIYNPRP | -0.675
RRIRCRPPRLPRPRPRPYAQPRP | -0.227
RRIRNRPPRLPRPRPRPDLNPRP | 0.274
RRIRDRPPRLPRPRPRPIFAPRP | 0.142
RRIRRRPPRLPRPRPRPWPFPRP | -0.0442
RRIRHRPPRLPRPRPRPEVLPRP | -0.0421
RRIRLRPPRLPRPRPRPMLFPRP | -0.136
RRIRNRPPRLPRPRPRPDWKPRP | -0.11
RRIRGRPPRLPRPRPRPCYAPRP | 0.128
RRIRYRPPRLPRPRPRPAFRPRP | -0.287
RRIRFRPPRLPRPRPRPRLVPRP | 0.207
RRIRQRPPRLPRPRPRPSQIPRP | -0.0855
RRIRFRPPRLPRPRPRPLGLPRP | -0.0983
RRIRMRPPRLPRPRPRPMHWPRP | -0.0799
RRIRNRPPRLPRPRPRPLKTPRP | -0.0746
RRIRARPPRLPRPRPRPTYWPRP | 0.144
RRIRYRPPRLPRPRPRPLEYPRP | -0.443
RRIRVRPPRLPRPRPRPYFFPRP | -0.512

Sequence | shrunken log2 fold change
RRIRSRPPRLPRPRPRPEHLPRP | -0.258
RRIRARPPRLPRPRPRPWNKPRP | -0.0945
RRIRPRPPRLPRPRPRPAMNPRP | 0.193
RRIRHRPPRLPRPRPRPEMHPRP | 0.0592
RRIRMRPPRLPRPRPRPSIMPRP | 0.23
RRIRPRPPRLPRPRPRPHSVPRP | -0.213
RRIRFRPPRLPRPRPRPMEFPRP | -0.194
RRIRMRPPRLPRPRPRPNAPPRP | -0.0273
RRIRVRPPRLPRPRPRPVLMPRP | 0.107
RRIRIRPPRLPRPRPRPMYQPRP | -0.862
RRIRLRPPRLPRPRPRPGCSPRP | 0.0547
RRIRTRPPRLPRPRPRPLCTPRP | -0.106
RRIRHRPPRLPRPRPRPGHPPRP | -0.00757
RRIRWRPPRLPRPRPRPFNPPRP | -0.389
RRIRWRPPRLPRPRPRPERTPRP | 1.08
RRIRVRPPRLPRPRPRPCFKPRP | -0.243
RRIRRRPPRLPRPRPRPLVVPRP | 0.312
RRIRARPPRLPRPRPRPREEPRP | 0.579
RRIRGRPPRLPRPRPRPSHGPRP | 0.487
RRIRIRPPRLPRPRPRPCAGPRP | -0.000248
